Laboratory results published in patent US20180086841A1.

Tests used:
[1] = target: human CD27 (A59T) (human) (UniProt P26842); assay: cell-based or functional assay
[2] = target: human CD27 (human) (UniProt P26842); assay: cell-based or functional assay
[3] = target: Macaca mulatta CD27 (mmCD27) (Macaca mulatta (rhesus) / Macaca fascicularis (cynomolgus)); assay: cell-based or functional assay
[4] = target: H60A; assay: flow cytometry on CHO-K1 transfectants, right sub-column
[5] = target: E9A; assay: as above
Sequence of E9A (receptor chain, as listed by the source limits assumed): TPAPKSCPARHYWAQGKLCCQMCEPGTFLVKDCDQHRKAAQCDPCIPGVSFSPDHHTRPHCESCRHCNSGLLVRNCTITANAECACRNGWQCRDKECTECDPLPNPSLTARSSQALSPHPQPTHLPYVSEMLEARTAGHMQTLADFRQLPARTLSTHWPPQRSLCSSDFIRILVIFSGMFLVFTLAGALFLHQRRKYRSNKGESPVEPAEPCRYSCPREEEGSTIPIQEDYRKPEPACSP

[6] = target: V49A; assay: as above
Sequence of V49A (receptor chain, as listed by the source V49A V49A limits assumed): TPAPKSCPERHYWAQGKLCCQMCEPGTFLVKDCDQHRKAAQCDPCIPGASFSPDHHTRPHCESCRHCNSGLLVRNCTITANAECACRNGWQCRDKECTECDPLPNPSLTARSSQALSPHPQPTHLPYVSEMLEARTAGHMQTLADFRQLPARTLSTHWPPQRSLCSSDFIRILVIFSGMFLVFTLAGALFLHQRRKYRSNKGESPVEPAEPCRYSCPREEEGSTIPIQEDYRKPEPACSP

[7] = target: R10A; assay: as above
Sequence of R10A (receptor chain, as listed by the source R10A R10A limits assumed): as the sequence (receptor chain, as listed by the source V49A V49A limits assumed) above, with R10A, A49V counted along it

[8] = target: P8A; assay: as above
Sequence of P8A (receptor chain, as listed by the source limits assumed): as the sequence (receptor chain, as listed by the source V49A V49A limits assumed) above, with P8A, A49V counted along it

[9] = target: R37A; assay: as above
Sequence of R37A (receptor chain, as listed by the source R37A R37A limits assumed): as the sequence (receptor chain, as listed by the source V49A V49A limits assumed) above, with R37A, A49V counted along it

[10] = target: D32A; assay: as above
Sequence of D32A (receptor chain, as listed by the source D32A D32A limits assumed): as the sequence (receptor chain, as listed by the source V49A V49A limits assumed) above, with D32A, A49V counted along it

[11] = target: I46A; assay: as above
Sequence of I46A (receptor chain, as listed by the source I46A I46A limits assumed): as the sequence (receptor chain, as listed by the source V49A V49A limits assumed) above, with I46A, A49V counted along it

[12] = target: Q91A; assay: as above
Sequence of Q91A (receptor chain, as listed by the source Q91A Q91A limits assumed): as the sequence (receptor chain, as listed by the source V49A V49A limits assumed) above, with A49V, Q91A counted along it

[13] = target: G16A; assay: as above
Sequence of G16A (receptor chain, as listed by the source G16A G16A limits assumed): as the sequence (receptor chain, as listed by the source V49A V49A limits assumed) above, with G16A, A49V counted along it

[14] = target: R93A; assay: as above
Sequence of R93A (receptor chain, as listed by the source R93A R93A limits assumed): as the sequence (receptor chain, as listed by the source V49A V49A limits assumed) above, with A49V, R93A counted along it

[15] = target: K17A; assay: as above
Sequence of K17A (receptor chain, as listed by the source K17A K17A limits assumed): as the sequence (receptor chain, as listed by the source V49A V49A limits assumed) above, with K17A, A49V counted along it

[16] = target: Q41A; assay: as above
Sequence of Q41A (receptor chain, as listed by the source Q41A Q41A limits assumed): as the sequence (receptor chain, as listed by the source V49A V49A limits assumed) above, with Q41A, A49V counted along it

[17] = target: P44A; assay: as above
Sequence of P44A (receptor chain, as listed by the source P44A P44A limits assumed): as the sequence (receptor chain, as listed by the source V49A V49A limits assumed) above, with P44A, A49V counted along it

[18] = target: N88A; assay: as above
Sequence of N88A (receptor chain, as listed by the source N88A N88A limits assumed): as the sequence (receptor chain, as listed by the source V49A V49A limits assumed) above, with A49V, N88A counted along it

[19] = target: Macaca mulatta CD27 (mmCD27) (Macaca mulatta (rhesus) / Macaca fascicularis (cynomolgus)); assay: flow cytometry MFI, CD8+ T cells in rhesus peripheral blood, n=4
[20] = target: R87A; assay: flow cytometry on CHO-K1 transfectants, left sub-column, cell hatched (loss of binding)
Sequence of R87A (receptor chain, as listed by the source R87A R87A limits assumed): as the sequence (receptor chain, as listed by the source V49A V49A limits assumed) above, with A49V, R87A counted along it

[21] = target: W90A; assay: as above
Sequence of W90A (receptor chain, as listed by the source W90A W90A limits assumed): as the sequence (receptor chain, as listed by the source V49A V49A limits assumed) above, with A49V, W90A counted along it

[22] = target: R87A; assay: flow cytometry on CHO-K1 transfectants, right sub-column, cell hatched (loss of binding)
[23] = target: W90A; assay: as above
[24] = target: human CD27 (human) (UniProt P26842); assay: flow cytometry MFI, CD8+ T cells in human peripheral blood, n=4
[25] = target: K38A; assay: flow cytometry on CHO-K1 transfectants, left sub-column
[26] = target: H60A; assay: as above
[27] = target: E9A; assay: as above
[28] = target: V49A; assay: as above
[29] = target: G89A; assay: as above
[30] = target: R10A; assay: as above
[31] = target: P8A; assay: as above
[32] = target: S63A; assay: as above
[33] = target: R37A; assay: as above
[34] = target: Q15A; assay: as above
[35] = target: V30A; assay: as above
[36] = target: K31A; assay: as above
[37] = target: D43A; assay: as above
[38] = target: D32A; assay: as above
[39] = target: I46A; assay: as above
[40] = target: Q91A; assay: as above
[41] = target: H36A; assay: as above
Sequence of H36A (receptor chain, as listed by the source H36A H36A limits assumed): as the sequence (receptor chain, as listed by the source V49A V49A limits assumed) above, with H36A, A49V counted along it

[42] = target: G16A; assay: as above
[43] = target: F28A; assay: as above
[44] = target: R93A; assay: as above
[45] = target: W13A; assay: as above
[46] = target: K17A; assay: as above
[47] = target: Q41A; assay: as above
[48] = target: P44A; assay: as above
[49] = target: N88A; assay: as above
[50] = target: human CD27 (A59T) (human) (UniProt P26842); assay: cell ELISA on CD27-transfected CHOK1 cells, n=2
[51] = target: human CD27 (human) (UniProt P26842); assay: cell ELISA on CD27-transfected CHOK1 cells, n=2
[52] = target: Macaca mulatta CD27 (mmCD27) (Macaca mulatta (rhesus) / Macaca fascicularis (cynomolgus)); assay: cell ELISA on CD27-transfected CHOK1 cells, n=2

Sequence of 1F5-hIgG1 (antibody) (VH): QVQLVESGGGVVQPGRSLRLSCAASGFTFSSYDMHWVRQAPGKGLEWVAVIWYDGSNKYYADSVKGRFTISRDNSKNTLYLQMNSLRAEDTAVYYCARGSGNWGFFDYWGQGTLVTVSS
Sequence of 1F5-hIgG1 (antibody) (VL): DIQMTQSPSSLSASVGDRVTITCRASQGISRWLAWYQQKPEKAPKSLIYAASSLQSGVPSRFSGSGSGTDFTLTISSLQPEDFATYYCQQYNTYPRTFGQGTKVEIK
Sequence of H60A (receptor chain, as listed by the source H60A H60A limits assumed): as the sequence (receptor chain, as listed by the source V49A V49A limits assumed) above, with A49V, H60A counted along it

NF-κB-luciferase reporter assay, Emax [1]: 1.3 fold change
NF-κB-luciferase reporter assay, Emax [2]: 1.48 fold change
NF-κB-luciferase reporter assay, Emax [3]: 1.33 fold change
binding, WT hCD27 = 100 (GM FITC) [4]: 110%
binding, WT hCD27 = 100 (GM FITC) [5]: 120%
binding, WT hCD27 = 100 (GM FITC) [6]: 92.8%
binding, WT hCD27 = 100 (GM FITC) [7]: 113%
binding, WT hCD27 = 100 (GM FITC) [8]: 73.1%
binding, WT hCD27 = 100 (GM FITC) [9]: 88%
binding, WT hCD27 = 100 (GM FITC) [10]: 59.6%
binding, WT hCD27 = 100 (GM FITC) [11]: 69.7%
binding, WT hCD27 = 100 (GM FITC) [12]: 115%
binding, WT hCD27 = 100 (GM FITC) [13]: 101%
binding, WT hCD27 = 100 (GM FITC) [14]: 85.5%
binding, WT hCD27 = 100 (GM FITC) [15]: 112%
binding, WT hCD27 = 100 (GM FITC) [16]: 66.3%
binding, WT hCD27 = 100 (GM FITC) [17]: 83.7%
binding, WT hCD27 = 100 (GM FITC) [18]: 119%
EC50 [19]: 1.92 nM
binding, WT hCD27 = 100 (GM FITC) [20]: 40.8%
binding, WT hCD27 = 100 (GM FITC) [21]: 42.5%
binding, WT hCD27 = 100 (GM FITC) [22]: 7.8%
binding, WT hCD27 = 100 (GM FITC) [23]: 10%
EC50 [24]: 1.3 nM
binding, WT hCD27 = 100 (GM FITC) [25]: 96.5%
binding, WT hCD27 = 100 (GM FITC) [26]: 176%
binding, WT hCD27 = 100 (GM FITC) [27]: 95.4%
binding, WT hCD27 = 100 (GM FITC) [28]: 143%
binding, WT hCD27 = 100 (GM FITC) [29]: 103%
binding, WT hCD27 = 100 (GM FITC) [30]: 105%
binding, WT hCD27 = 100 (GM FITC) [31]: 82.5%
binding, WT hCD27 = 100 (GM FITC) [32]: 144%
binding, WT hCD27 = 100 (GM FITC) [33]: 109%
binding, WT hCD27 = 100 (GM FITC) [34]: 99%
binding, WT hCD27 = 100 (GM FITC) [35]: 171%
binding, WT hCD27 = 100 (GM FITC) [36]: 205%
binding, WT hCD27 = 100 (GM FITC) [37]: 202%
binding, WT hCD27 = 100 (GM FITC) [38]: 115%
binding, WT hCD27 = 100 (GM FITC) [39]: 128%
binding, WT hCD27 = 100 (GM FITC) [40]: 156%
binding, WT hCD27 = 100 (GM FITC) [41]: 116%
binding, WT hCD27 = 100 (GM FITC) [42]: 96%
binding, WT hCD27 = 100 (GM FITC) [43]: 113%
binding, WT hCD27 = 100 (GM FITC) [44]: 120%
binding, WT hCD27 = 100 (GM FITC) [45]: 89.5%
binding, WT hCD27 = 100 (GM FITC) [46]: 95.1%
binding, WT hCD27 = 100 (GM FITC) [47]: 104%
binding, WT hCD27 = 100 (GM FITC) [48]: 150%
binding, WT hCD27 = 100 (GM FITC) [49]: 153%
EC50 [50]: 0.326 nM
EC50 [51]: 0.325 nM
EC50 [52]: 0.193 nM
Substance: 1F5-hIgG1 (antibody)
